Test results reported in US20210071139A1.

target: TOX (UniProt Q66JW3); assay: TOX co-IP from EL4 nuclear extract, LC-MS/MS, MiST
Sequence (Q66JW3 whole entry): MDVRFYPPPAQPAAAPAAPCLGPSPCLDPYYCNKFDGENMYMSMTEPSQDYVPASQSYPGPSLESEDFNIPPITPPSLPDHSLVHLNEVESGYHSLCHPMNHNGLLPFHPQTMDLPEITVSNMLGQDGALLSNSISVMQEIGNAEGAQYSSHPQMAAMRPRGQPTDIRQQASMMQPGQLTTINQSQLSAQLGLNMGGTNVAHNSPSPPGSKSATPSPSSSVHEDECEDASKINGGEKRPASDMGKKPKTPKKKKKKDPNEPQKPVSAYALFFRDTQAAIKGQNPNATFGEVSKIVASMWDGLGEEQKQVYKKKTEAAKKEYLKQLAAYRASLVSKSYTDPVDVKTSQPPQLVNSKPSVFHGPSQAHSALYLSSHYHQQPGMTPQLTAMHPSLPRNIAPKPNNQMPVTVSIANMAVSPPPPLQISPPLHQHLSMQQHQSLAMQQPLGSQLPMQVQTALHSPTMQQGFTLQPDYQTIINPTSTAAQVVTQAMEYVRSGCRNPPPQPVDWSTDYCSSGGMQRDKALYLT

Emg1, sequence (O35130 whole entry): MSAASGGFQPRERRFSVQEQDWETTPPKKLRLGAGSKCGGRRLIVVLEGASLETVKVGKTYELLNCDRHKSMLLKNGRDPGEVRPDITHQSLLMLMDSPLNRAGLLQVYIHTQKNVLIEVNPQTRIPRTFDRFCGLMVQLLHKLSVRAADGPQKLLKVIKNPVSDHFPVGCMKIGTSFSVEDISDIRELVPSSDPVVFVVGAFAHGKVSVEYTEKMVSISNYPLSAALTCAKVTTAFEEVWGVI

Row | Substance | Abundance | MiST Score | Reproducibility | Specificity
1 | Ap3m1 (from UniProt Q9JKC8 1-418) | 1.64e-05 | 0.829 | 0.982 | 0.767
2 | Arhgef2 (from UniProt Q60875 1-985) | 1.33e-05 | 0.847 | 0.943 | 0.811
3 | Atxn2 (from UniProt O70305 1-1285) | 2.51e-06 | 0.831 | 0.831 | 0.838
4 | Ccnk (from UniProt O88874 1-554) | 1.18e-05 | 0.846 | 0.975 | 0.795
5 | Cdc16 (from UniProt Q8R349 1-620) | 4.84e-06 | 0.847 | 0.524 | 1
6 | Cnot1 (from UniProt Q6ZQ08 1-2375) | 5.57e-07 | 0.85 | 0.931 | 0.821
7 | Copg1 (from UniProt Q9QZE5 1-874) | 3.36e-06 | 0.844 | 0.514 | 1
8 | Cpt1a (from UniProt P97742 2-773) | 7.71e-07 | 0.847 | 0.522 | 1
9 | Csrp1 (from UniProt P97315 1-193) | 5.52e-05 | 0.828 | 0.966 | 0.773
10 | Ddx23 | 7.9e-06 | 0.836 | 0.837 | 0.843
11 | Dhx29 (from UniProt Q6PGC1 1-1365) | 5.88e-07 | 0.847 | 0.928 | 0.818
12 | Dnajb6 (from UniProt O54946 1-365) | 2.48e-05 | 0.837 | 0.944 | 0.796
13 | Dnajb11 (from UniProt Q99KV1 23-358) | 2.91e-05 | 0.839 | 0.783 | 0.872
14 | Gm20517; Med20 (from UniProt Q9R0X0 1-212) | 2.2e-05 | 0.831 | 0.472 | 1
15 | Gnl2 (from UniProt Q99LH1 1-728) | 7.98e-06 | 0.843 | 0.894 | 0.827
16 | Hsd17b10 (from UniProt O08756 2-261) | 1.27e-05 | 0.857 | 0.557 | 1
17 | Lsg1 (from UniProt Q3UM18 1-644) | 2.9e-06 | 0.837 | 0.886 | 0.822
18 | Mark2 (from UniProt Q05512 1-776) | 2.81e-06 | 0.842 | 0.891 | 0.826
19 | Mcm5 (from UniProt P49718 2-734) | 4.18e-06 | 0.85 | 0.757 | 0.9
20 | Mrpl3 (from UniProt Q99N95 41-348) | 7.04e-05 | 0.857 | 0.555 | 1
21 | Nob1 (from UniProt Q8BW10 1-403) | 2.4e-05 | 0.84 | 0.955 | 0.796
22 | Nop2 (from UniProt Q922K7 1-793) | 8.3e-05 | 0.844 | 0.981 | 0.789
23 | Nop14 (from UniProt Q8R3N1 1-860) | 1.27e-06 | 0.84 | 0.501 | 1
24 | Nsf (from UniProt P46460 1-744) | 2.87e-06 | 0.838 | 0.808 | 0.859
25 | Orc1 (from UniProt Q9Z1N2 1-840) | 1.58e-06 | 0.843 | 0.866 | 0.839

target: TOX (UniProt Q66JW3); assay: anti-TOX IP from EL4 nuclear extract, LC-MS/MS, MiST analysis

Row | Substance | Abundance | MiST Score | Reproducibility | Specificity
26 | BC005685 | 0.000234 | 0.779 | 0.959 | 0.705
27 | Bag6 (from UniProt Q9Z1R2 1-1154) | 1.4e-06 | 0.782 | 0.765 | 0.797
28 | Brd1 | 3.1e-06 | 0.785 | 0.321 | 1
29 | Cd3eap (from UniProt Q76KJ5 1-399) | 0.000224 | 0.773 | 0.993 | 0.68
30 | Csnk2a2 (from UniProt O54833 1-350) (enzyme) | 2.87e-05 | 0.778 | 0.913 | 0.725
31 | Cycs (from UniProt P62897 2-105) | 8.14e-05 | 0.793 | 0.957 | 0.726
32 | Eif2a (from UniProt Q8BJW6 1-581) | 8.58e-05 | 0.794 | 0.992 | 0.712
33 | Eif3h (from UniProt Q91WK2 1-352) | 0.000105 | 0.784 | 0.956 | 0.714
34 | Elmo1 (from UniProt Q8BPU7 1-727) | 5.93e-06 | 0.769 | 0.595 | 0.854
35 | Emg1 (from UniProt O35130 1-244) (enzyme) | 7.66e-05 | 0.766 | 0.939 | 0.695
36 | Gm20425; Srprb (from UniProt P47758 1-269) | 5.88e-06 | 0.766 | 0.92 | 0.703
37 | Hp1bp3 (from UniProt Q3TEA8 2-554) | 1.65e-05 | 0.766 | 0.779 | 0.766
38 | Luzp1; mFLJ00226 (from UniProt Q8R4U7 2-1068) | 7.26e-06 | 0.792 | 0.856 | 0.77
39 | Lztfl1 (from UniProt Q9JHQ5 1-299) | 6.33e-05 | 0.776 | 0.894 | 0.73
40 | Numa1 (from UniProt E9Q7G0 1-2094) | 1.43e-06 | 0.787 | 0.775 | 0.799
41 | Pfkl (from UniProt P12382 2-780) (enzyme) | 3.37e-06 | 0.768 | 0.501 | 0.894
42 | Ppan (from UniProt Q91YU8 1-470) | 4.7e-05 | 0.792 | 0.959 | 0.723
43 | Racgap1 (from UniProt Q9WVM1 1-628) | 8.29e-06 | 0.793 | 0.868 | 0.765
44 | Rbm15 (from UniProt Q0VBL3 1-962) | 8.04e-06 | 0.776 | 0.987 | 0.687

Row | Substance | Abundance | MiST Score | Reproducibility | Specificity
45 | Rcc1 (from UniProt Q8VE37 2-421) | 2.79e-05 | 0.796 | 0.986 | 0.717
46 | Rcc2 (from UniProt Q8BK67 1-520) | 3.74e-05 | 0.79 | 0.958 | 0.722
47 | Sin3a (from UniProt Q60520 1-1274) | 5.49e-06 | 0.773 | 0.284 | 1
48 | Slc25a3 (from UniProt Q8VEM8 46-357) | 6.71e-05 | 0.778 | 0.975 | 0.696
49 | Slc25a4 (from UniProt P48962 2-298) | 0.000186 | 0.765 | 0.959 | 0.684
50 | Slc25a11 (from UniProt Q9CR62 2-314) | 2.29e-05 | 0.788 | 0.956 | 0.72
51 | Smarca4 (from UniProt Q3TKT4 1-1613) (enzyme) | 6.52e-07 | 0.786 | 0.594 | 0.879
52 | Srp72 | 3.55e-05 | 0.765 | 0.872 | 0.723
53 | Srrm2 (from UniProt Q8BTI8 1-2703) | 1.1e-06 | 0.769 | 0.861 | 0.734
54 | Tcof1 (from UniProt O08784 1-1320) | 0.000142 | 0.77 | 0.984 | 0.681
55 | Terf2 (from UniProt O35144 1-541) | 6.86e-06 | 0.79 | 0.994 | 0.705
56 | Thoc1 (from UniProt Q8R3N6 1-657) | 9.29e-06 | 0.775 | 0.999 | 0.681
57 | Umps (from UniProt P13439 1-481) (enzyme) | 2.41e-06 | 0.766 | 0.792 | 0.761
58 | Usp10 (from UniProt P52479 2-792) (enzyme) | 3.26e-06 | 0.793 | 0.613 | 0.881
59 | Wdr36 | 3.46e-06 | 0.785 | 0.886 | 0.747
60 | Xrcc5 (from UniProt P27641 1-732) | 2.92e-05 | 0.775 | 0.737 | 0.799
61 | Xrn2 (from UniProt Q9DBR1 1-951) (enzyme) | 8.55e-06 | 0.787 | 0.804 | 0.787
62 | Ywhah (from UniProt P68510 2-246) | 6.28e-05 | 0.774 | 0.819 | 0.761
63 | Zw10 (from UniProt O54692 2-779) | 2.83e-06 | 0.767 | 0.582 | 0.857
